According to a protein production outcome set (Wang et al. 2014):

assay: label from the status in PepcDB records

Q: With “MSTNEITKRLPNLTSRRALLLYSLPVLVAIGVSHSLKESSLTKTIALNLPESQVVERILDATTAEVVTPPNFEYQIQAGDNLSTIFSQLGFGYSSLMKVMETDLNYLALDTLKPGNTLRFWRNDATGELEKMELQFSIADKVVYQLNSDGGYDFTDISIPGVWRQEPLVGVIQGSFSSSANRLGLSSAEISQVVSLLKEQVNFGRDLRAGDRFEVVRRSQTINGVSTGKNEIEAIKIYNRGREITAYLHTDGQFYNAKGESLQRAFQRYPVSRSWRISSGFNPNRLHPVTGRVAP” as the sequence, how does the protein production read?
A: failed

Q: Which protein production does the source give for “MSTPIDTYWRLRLTEVAESLRANNFAVSLVDSCEEAGRVFLDDLLPASGASSVSFGGSMTLVKCGVPEALRQRADLQLLDTFDKNLSAAEMYERRRQSLLVDMFLTGTNAVTMDGKLINLDMIGNRVGAINFGPRNVVLFVGRNKVVDTVEDGMRRIKEYASPVNAIRLDKKTPCKKTAQCMDCKSPDRICNVWTITEKCFPSGRVHVILINEDAGY” here?
A: failed

Q: With “MSTPRQILAAIFDMDGLLIDSEPLWDRAELDVMASLGVDISRRNELPDTLGLRIDMVVDLWYARQPWNGPSRQEVVEQVIARAISLVEETRPLLPGVREAVALCKEQGLLVGLASASPLHMLEKVLTMFDLRDSFDALASAEKLPYSKPHPQVYLDCAAKLGVDPLTCVALEDSVNGMIASKAARMRSIVVPAPEAQNDPRFVLANVKLSSLTELTAKDLLG” as the sequence, how does the protein production read?
A: not failed

Q: For “MSTPYRPAMHHAWRLLPLGMAVASPLLAAEPLNLDAVNVTGFSEQESASDYRAGRASIYGLDQALLLDTPASVSVFSEALIKDRQAKLLSDVLRNDASVGEGYAPVGYYENFVVRGFSLNAANSYRINGRSIAGEQNVALENKQQVELLKGLSGLQSGVSEPGGVINYQTKRAQD”, which protein production is on record?
A: failed

Q: Which protein production does the source give for “MSTQENVQIVKDFFAAMGRGDKKGLLAVSAEDIEWIIPGEWPLAGTHRGHAALAALLQKASEMVEISYPEPPEFVAQGERVLVVGFATGRVKSTNRTFEDDWVFAITVRKSKVTSIREYIDTLALARATNFNAT” here?
A: not failed

Q: For “MSTRPERERASTSTDAVLQATVALSAGHKPAFRGFVKDPPRARAHAAAMFVSNAREAEPFVAPDLSEIRVLVDRATVGVASVSLAHATVAAGAETVWHRLQATDEIYFVLSGRGLVSVGDESGEVGPGDAVWIPAGVPQKIRALGSVPLTFLCAWGPAYLPERDQRMGEAAVIGAWPLEHHHHHH”, which protein production is on record?
A: not failed

Q: Which protein production does the source give for “MSTVEKIQTFIILFAVTCGIVLGQFHLIHMYSEQFIVPFLFFMLYGLFLSIPLKEIKNGFRNLKFAGTSLTINFLWTPLLAWGLGALFLSDHPALWVGFIMLMVTPCTDWYLIFTEIAKGNVALSTAILPVNLILQVLLLPIYLFLFAGVMKTVAVSVLVESIVIVIVLPFLLAHATKFIMNKLKKAETLENKLIPFFSSAQIVFLSLAIVAMFASQGKYLLQNMNVVLLLLIPVLLFFIINFVLGQFIGRVMRLSYKDTVSLNLTTLARNSPVALAIAVTAFPNEPLIALALVIGPLIELPVLACVSQVLLLIKKKKQYT” here?
A: failed

Q: For “MSTVNNHRVVIRRRKVRRGGHHGGSWKIAYADFITAMMAFFLVMWLISIVPREELKGIAEYFRMPLRVALTGGPSSSAETSAIPGGGQDPLRSQGDVRRAEGNRVEAQPMGDAERRDRHRLERLKVRLENLIEESPVLKNFRPQLLIDMTTEGLRIQIVDNQNRPMFATGSADVQPYMRDILRELGPVLNDLPNKISIAGHTDASQYARGERAYSNWELSADRANASRQELVAGGMHEGKVLRIQGLASSMSLVKDDPFAAVNRRISLVVLNASTQRRIENENAAAADVNARDAQGVGAALAGQLAASGSDGGAR”, which protein production is on record?
A: failed

Q: Which protein production does the source give for “MSVCTAHHPMTSPLPPFPLQQRLSRRTLLRFITHTAGIALLNPIGLAQSAPRAGKPPASSSDFISRRPPQAQRRFVSAAVEQQLIHIKAKIADPELAWLFENCYPNTLDTTVSTGTRNGKPDTFIITGDIQALWLRDSAAQVQAYVPLARHDPALRRLFHGLIQRHAACIRLDPYANAFLPDGVSHPLKWSVNDVTQMQPGIGERKWEIDSLCYPIRLAHAYWRASDDIAPFDEDWRQAMHIVLRTFGEQQRLQTPGPYTFQRPALRATETLMLEGYGAPTRPNGMLHSMFRPSDDACTYPLSVPENLFAVITLRQLAAMSEAIHHDAAFASQCRSLAHEIAQATQQFGLMHDADNHPFWAYEVDGYGNQLFMDDANAPSLLSLAYLGCCTSTDPVFLRTRDLAWSARNPYFCQGRAAVGVGSPHTGRHTIWPMSLIHYALSSHDDTQIQHCLHWLKTTHAGTGFMHEAFHQDDPSTFTRSWFAWANSLFGELIVDLAQRKPHLLGVNRSAALLHG” here?
A: failed

Q: Which protein production does the source give for “MSVDIVHLADSELGKIVALLATSITIVPLFKRLGLGSVLGYLVAGCLIGPSVLGLFQNPQSIVHMAELGVVMFLFIIGLEMHPELLWSMRKAIFGRGFLQVLTCGTLLTFAGIHLIGLTTAVAFVVGAGFTLSSTAIVMQVLEDKGISSAPKGQRIVSTLLFEDLAIVPLLASMTFLAPSTEGATTGINSAAISIAVIGIIILVASSKWIMNPLFRMISKAKVREMMTAAALLVVLGAALLMELSGLSMAMGAFVAGVMLSESSFRHQLEADIEPFRGLLLGLFFMGVGMSLDLKFVFDDLFLLLSLVVILVLGKAISVYVIGLLTLLSHREALMRMSIMSHGGEFAFVLFSAAAAVGILDEDQQATFTAAVIISMLLSPLVVLMVQRIMTRKAKPEAPSMAGIEVAEDLENSVIVIGFGRFSQIVCQILLARGITVTVIDANTDRIRAAARFGFKVYYGDGTRLDVLRASGLAKADCVVLGINDPTRSASIVEQIKHEFPLMPIFARTYDRYSAIQLTKLHVDFQIRETFESALVLSKATMMKLGIDEVEALEVIESVRVLDKERFKEELIYGTSAELIRKYFTPKPLVKPQQPAEALNEYAAEILAETDESQHCQDNLNKKADV” here?
A: failed

Q: For “MSVEPTSVDPSPDKSAPANASGRADASARPSTGESARPSGGETPEVLRPHAEVTFAAELAALAAQDDRPRPVRWRLSPWAVATYLLGGTLPDGTVITPKYVGPRRIVEVAVTTLATDRALLLLGVPGTAKTWVSEHLAAAVSGDSTLLVQGTAGTPEEAIRYGWNYAQLLAHGPSRDALVPSPVMRAMADGMTARVEELTRVPADVQDTLITILSEKTLPIPELGQEVQAVRGFNLIATANDRDRGVNELSSALRRRFNTVVLPLPESADAEVDIVSRRVDQIGRSLDLPAVPDGVDEIRRVVTVFRELRDGVTTDGRTKLKSPSGTLSTAEAISVVTNGLALAAHFGDGVLRASDVAAGILGAVVRDPAADRVIWQEYLEAVVRERDGWMDFYRACREVSALEHHHHHH”, which protein production is on record?
A: not failed

Q: With “MSVFMDLNIINSSDKNRLKHIIETAAHLGYSTVAINYVVEPLQKKQEIPNPQSISDLFDKFPVVQGKSSPIKVLNRLTIVASDASHFRPTNEYKKFDLVAVYPKTEKLFHAACMTFDVDIICIAVTEKQPFHFKRAPVNGAIDRGIFFETCYAAAIRDSITRRYTIANAICLMEICKGKNVIVSSGAERQLELRGPYDIANLGLVFSLSEGDAKAAVSTNCRSVLLHGETRATASGVIHTMKKPQILQKEEEETPAAKKARTELA” as the sequence, how does the protein production read?
A: failed

Q: Which protein production does the source give for “MSVHHAERFLPFSDLQMFTLVADVERYPQFVPWWIAARVIDSRPAPAGDGPDAKIYRTDQVIGMGPVRLRFTSRTLLVSPRRISVASQGGGPVRDLSLDWWFDAQPGGCLTRLDMTLDLGSRSLENLLAGMSSEAAVKLVDAFERRAHALYQGG” here?
A: failed

Q: Which protein production does the source give for “MSVIKLKSKLKYCHYAYDDEGYVIHMLTSNERTFFTNAYIIETKNSIVVVDTLMVNSDAILLRQYMDNINKPLIAVIITHGHPDHYNGTEIITGFKEVPIISTKGIRDCIQDTVDSKEVKWKPYFGQDWPEHKILPNQLVIDSEVVNLDGLDYSFRDLGAAESSSDLFFTLGEKRSVIFVGDVVFNNMHGFMNDGNSAQWLKVLQKLLTEIADVKLLFTGHGDPGDTHQLVQRQIDYISHYRSNLLAIIRGNQLLNDTQKQSFEQLMMANYPEFQLSSFIKAGIDAVSQELIVEQNDKP” here?
A: failed

Q: With “MSVKSVLVFLSVSGSTMPMLILESDSIAEVKLRIQTCNGFRVRRQKLVFSGRELARNASRVKDYGVTGGSVLHLVLKLYDP” as the sequence, how does the protein production read?
A: failed

Q: Which protein production does the source give for “MSVLSIVTVPDKRLSLCSEEVEKVDQSIRKLVDDMFETMHANQGLGLAAVQVGVHKRILVMNVPEEFEDSEDIENVEDKIEGYELYGGPYCIINPKIVDISQEKVKLKEGCLSVPGYFDYIVRPQRIAVQYLDYNGNECIIKAQGWLARCLQHEIDHLNGTVFLKYLSKFKRDFAIEKVKKKERTDLI” here?
A: not failed

Q: With “MSVPQGARDVEAIRAIGPDQWQTVPAGQTLNRGFSDDEFWLQVRVPAQPANRVLEVGYPLLDEVSVYWELDGRIIESHHTGDTRPFDSRPIVHRNFVFLVPSNTEPVTAWIRVQTQGSVQVPVAVTPSAEFLANEQISYGWQTMFLGIVVALALYNLFLFLIVRHQTYLWYVLTVVCSGAVQLNFNGLLFQWFWPDVPWINRYFTVPVVSAALIAAIVFTMKFLLVKSYSRWGYRILQALLAVNLLGLIYGFLGSYQVGIIWISSLAAFATPVAWLIGINVWRRGQILGGFYVLAWTPLLLGHLVLAVSKLGWIPRSPFTELAPQAGVAVEVILLSFALAYRINMERRRRQQAQEHALDIQRQANLTLESRVRERTEELEQANEQLRAISLTDGLTHVANRRRFDEKLETEWNRALRHEHELSLILLDIDHFKQVNDRFGHLVGDDCLVALASILSDEVQRSGDLVARYGGEEFAILLPTTDVAGAQQVAERMRLSVARTPVNSGEHMSPVSLTISLGVATLTPNRQSDCQELIRRADEALYAAKSDGRNRVVVWHPKAVAPTTG” as the sequence, how does the protein production read?
A: failed

Q: For “MSVQLSEGQTFGPRAINVTRTTLVRYAGASGDFNPIHYSDRAAREAGMDGVIAHGMWTMGAALGTVIDWVGGPERVVSQRARFTRPVQVPDTEGGTAIEVAATVRKVSEEAATLAVDVKCDGQSVLGRVEVVVRQGEQ”, which protein production is on record?
A: failed

Q: Which protein production does the source give for “MSVQNIVNINESNLQQTLEQSMTTPVLFYFWSERSQHCLQLTPVLESLAAQYHGQFILAKLDCDAEQMIAAQFGLRAIPTVYLFQNGQPVDGFQGPQPEEAIRALLDKVLPREEELKAQQAMQLMQEGNYIDALPLLKDAWQLSSQNSEIGLLLAEAQIALNRSEEAEAVLKTIPLQDQDTRYQGLVAQIELLKQAADTPEIQQLQQQVADNPQDAALATQLALQLHQVGRNEEALELLFSHLRKDLTAAEGQTRKTFQEILAALGTGDALASKYRRQLYALLY” here?
A: not failed

Q: With “MSVQTPDFSQQQQFLELTQQTIQNQQFDRLVLSQYKGTEPELEKVTFRMVELQQQFKLSALYHYTTKDVTKNYDLNDAIGVIETLIANCKQANLFGSVIEAQLKKNKKKAMLNVQQLSAEKYNNNVGQQHNREKQRYIDTMAPFLQYLGITEPNGNIIPAMARKWKQINKFIEIFSHAYEQIELKDDSIKIVDFGSGKGYLTFALYDYLQQQTRTAPQMTGVELRSNLVEFCEDVAKKAGFDHLDFFEGDVRTYAPEHLDVMIALHACDVATDFAIHTGIRLNASMIMCAPCCHKELRPQLQSPKVLKPMLQFGIHAGQQAEMLTDTLRALLLKAYGYDVKVFEFVSLEHTSKNKMILATKRQTIQQPDPQILEQIQALKQMYGIQKQTLELLLQDQITIDNVGCKC” as the sequence, how does the protein production read?
A: failed

Q: For “MSVSPSPFNGAEHPIKGIALICLAVLLFASHDTLSKYLSAFYPIVMVVWARYVVHTLLMLVVFVPRSGFSAVVRTKRPGLQLLRALCLIGTSLLFTTGLRYIPLAEATAVNFLAPLLVTALSVPFLGERVSRAQWLAVLAGFVGVLIVVRPGGALFTPAILLPLGSALCFGFYQLLTRKLSGVDSPTTSNFLTGILNSLIMSALLPFFWSTPTLVHGLFMIGLGTCGMLGHMLLTQAFRHAAPAMLAPFSYGQILFAGLFGYLIFDHTPDQYALVGIAVICLSGLAVAWAQRKR”, which protein production is on record?
A: failed

Q: Which protein production does the source give for “MSVTSRYRDAWEGFWNEASGDRGAVFWDAEPTLTAGRHLAHFEPHLTDAALPLIDLGCGNGTQTRYFAERFPHVVGADLSAAALAHARHADPGGLAAYRQLDAADKAEAQALHAELGDANVYVRGVLHQCEPDDRQPLADALAALLGERGRAFLVEPSQAAKTVLMGLAQGPAGPPAKLAPVLRHGLTPGAVPDEAVPEYLRAAGLTVLASGELPLVTTEYTADGTRIELPSAWVVAGTA” here?
A: failed
